Experimental data taken from PMC2275666 (The EMBO Journal, 2008).

What was measured:
Assay in all cases: pull-down
6H–hTFIIEα S365E = target: T1, 6H–hTFIIEα S365E (human, UniProt P29083 1-439, S365E)
T1 sequence: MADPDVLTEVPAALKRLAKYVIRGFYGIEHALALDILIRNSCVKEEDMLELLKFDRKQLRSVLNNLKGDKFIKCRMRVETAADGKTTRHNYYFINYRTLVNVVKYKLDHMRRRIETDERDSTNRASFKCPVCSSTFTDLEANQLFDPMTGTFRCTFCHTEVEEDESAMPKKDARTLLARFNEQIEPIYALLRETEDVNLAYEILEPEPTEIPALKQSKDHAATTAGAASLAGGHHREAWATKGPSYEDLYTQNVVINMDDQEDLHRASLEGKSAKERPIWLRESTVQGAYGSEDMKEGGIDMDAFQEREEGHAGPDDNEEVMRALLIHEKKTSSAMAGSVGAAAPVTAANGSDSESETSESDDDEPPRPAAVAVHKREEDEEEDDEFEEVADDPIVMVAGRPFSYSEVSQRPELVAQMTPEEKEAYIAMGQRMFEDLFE

6H–hTFIIEα V372D = target: T2, 6H–hTFIIEα V372D (human, UniProt P29083 1-439, V372D)
T2 sequence: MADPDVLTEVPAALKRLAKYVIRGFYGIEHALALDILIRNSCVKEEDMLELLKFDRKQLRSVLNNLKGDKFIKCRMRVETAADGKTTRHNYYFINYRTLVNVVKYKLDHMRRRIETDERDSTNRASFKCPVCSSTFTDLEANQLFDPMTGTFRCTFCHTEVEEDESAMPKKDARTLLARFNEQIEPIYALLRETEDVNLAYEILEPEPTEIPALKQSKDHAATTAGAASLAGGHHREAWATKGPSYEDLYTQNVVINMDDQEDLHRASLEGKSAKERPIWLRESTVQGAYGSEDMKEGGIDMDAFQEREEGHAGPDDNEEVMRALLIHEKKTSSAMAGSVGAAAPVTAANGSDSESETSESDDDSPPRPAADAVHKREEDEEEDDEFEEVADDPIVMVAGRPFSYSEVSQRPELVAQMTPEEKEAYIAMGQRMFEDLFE

6H–hTFIIEα F387A = target: T3, 6H–hTFIIEα F387A (human, UniProt P29083 1-439, F387A)
T3 sequence: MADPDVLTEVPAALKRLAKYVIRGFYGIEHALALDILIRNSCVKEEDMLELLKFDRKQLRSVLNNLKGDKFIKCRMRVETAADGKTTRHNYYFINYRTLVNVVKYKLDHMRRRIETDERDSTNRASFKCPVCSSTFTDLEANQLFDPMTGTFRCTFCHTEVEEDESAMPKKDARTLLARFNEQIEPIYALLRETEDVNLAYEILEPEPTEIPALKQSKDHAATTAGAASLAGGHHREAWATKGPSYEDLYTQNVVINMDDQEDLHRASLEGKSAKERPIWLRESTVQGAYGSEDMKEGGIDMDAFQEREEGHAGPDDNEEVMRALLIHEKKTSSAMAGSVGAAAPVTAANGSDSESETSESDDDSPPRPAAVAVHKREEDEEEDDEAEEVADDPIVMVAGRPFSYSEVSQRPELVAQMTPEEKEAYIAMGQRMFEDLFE

6H–hTFIIEα V372A = target: T4, 6H–hTFIIEα V372A (human, UniProt P29083 1-439, V372A)
T4 sequence: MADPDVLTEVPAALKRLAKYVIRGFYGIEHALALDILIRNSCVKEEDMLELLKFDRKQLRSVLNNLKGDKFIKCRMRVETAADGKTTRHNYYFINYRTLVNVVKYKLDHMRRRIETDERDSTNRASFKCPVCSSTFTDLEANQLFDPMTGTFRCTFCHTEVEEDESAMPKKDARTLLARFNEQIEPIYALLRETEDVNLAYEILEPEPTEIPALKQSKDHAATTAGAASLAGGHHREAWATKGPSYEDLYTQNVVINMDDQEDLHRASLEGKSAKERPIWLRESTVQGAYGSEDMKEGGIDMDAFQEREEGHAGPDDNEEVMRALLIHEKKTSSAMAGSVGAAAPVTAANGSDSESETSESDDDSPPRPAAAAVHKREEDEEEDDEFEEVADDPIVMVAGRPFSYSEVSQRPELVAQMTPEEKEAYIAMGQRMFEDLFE

6H–hTFIIEα D380A = target: T5, 6H–hTFIIEα D380A (human, UniProt P29083 1-439, D380A)
T5 sequence: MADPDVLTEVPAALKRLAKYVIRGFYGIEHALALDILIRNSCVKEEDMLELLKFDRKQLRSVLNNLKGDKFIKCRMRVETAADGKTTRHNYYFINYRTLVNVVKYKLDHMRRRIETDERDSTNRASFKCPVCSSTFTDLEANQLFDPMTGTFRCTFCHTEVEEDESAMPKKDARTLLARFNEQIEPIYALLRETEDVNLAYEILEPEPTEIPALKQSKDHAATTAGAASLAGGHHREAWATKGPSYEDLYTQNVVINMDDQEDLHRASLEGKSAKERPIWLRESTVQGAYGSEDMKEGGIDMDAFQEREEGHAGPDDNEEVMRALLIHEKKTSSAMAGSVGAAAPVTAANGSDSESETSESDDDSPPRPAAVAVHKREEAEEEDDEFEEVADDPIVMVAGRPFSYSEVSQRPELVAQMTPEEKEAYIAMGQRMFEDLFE

Measured: binding result

B1: GST-tagged hTFIIEβ (natural protein)
chain: MDPSLLRERELFKKRALSTPVVEKRSASSESSSSSSKKKKTKVEHGGSSGSKQNSDHSNGSFNLKALSGSSGYKFGVLAKIVNYMKTRHQRGDTHPLTLDEILDETQHLDIGLKQKQWLMTEALVNNPKIEVIDGKYAFKPKYNVRDKKALLRLLDQHDQRGLGGILLEDIEEALPNSQKAVKALGDQILFVNRPDKKKILFFNDKSCQFSVDEEFQKLWRSVTVDSMDEEKIEEYLKRQGISSMQESGPKKVAPIQRRKKPASQKKRRFKTHNEHLAGVLKDYSDITSSK
binds: all assays above
